Measured values as given in the nanobody polyreactivity screen of Harvey et al. (2022).

Assay: yeast display, Sf9 membrane polyspecificity reagent, FACS + sequencing; frameworks hold sequencing errors
In short: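 A nanobody's polyreactivity label depends on the gate it was sorted from. Yeast display cells were stained with 10% biotinylated, detergent-solubilized Sf9 membrane reagent for 1 hour at 4 °C, enriched on streptavidin microbeads and sorted by FACS. The low and high (top ~1%) gates were set on anti-HA fluorescence for expression and streptavidin fluorescence for reagent binding.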

Sequence | polyreactivity (PSR sort gate)
QVQLVETGGGLVQAGGTLRLSCADSGFTFHQYTMGWYIPAPGKERELVAAITGTGDTYYADSVKGRFTISRDNAKNTVYLQMNSLKPEDTAVYYCNALYVYRSVANFDYWGQGTQVTVSS | high polyreactivity
QVQLVETGGGLVQAVGSLRLSCAASGYTFLLYAMGWYRQAPGKERELVASISWNVGSTYYADSVKGRFTISRDNAKNTVYLQMNSLKPEDTAVYYCARGYERPRVATFHRFDYWGLGTQVTVSS | low polyreactivity
QVQLVETGGGLVRAGGSLRLSCAASGRPFGRYAMGWYRQGPGKETELVAAITRTGITNYEVSVKGRFTISRDNAKNTVYLHMNSLNPEDTAVYYGAARRWLNCYGTGYGYWGQGTLVTVSS | high polyreactivity
QVQLVETGGGVVHAGGSLRLSCAASGRIFRVDDMGWYRKAPGQERELVATINPTGGSTSYADSVKGRFTNSRDNAKNTVYLQMNSLTTEDTAVYYCAADCWYSVRKNWSRSGSFPFDYWRQGTQVTVSS | high polyreactivity
QVQLVETGGRLVQAGGSLRLSCAASGFTFWTYAMGWYRQAPGKERELVAAISTSGGSTYYADSVKGRFTISRDNAKNTVYLQMNSLKPEDTAVYYCSAYAIGEHFRARYGYWGQGTQVTVSS | high polyreactivity
QVQLVETGGRLVQAGGSLRLSCAASGSTFDIYVIGWSRQAPGKERELVAAISRVGNTSYADSVKGRFTISRDNAKNTVYLQMNSLIPEDTAVYYCAADAPSWYDRQYDYWGQGTQVTVSS | low polyreactivity
QVQLVETGGVLVQAGGSLRLSCAASGRTFVYNAMGWYRHAPGKEREFVAAIDGGTGSTYYADSVKGRFTISRDNAKNTVYLQMNSLKPEDTAVYYCAVETYGGGYPVTYDYWGQGTQVTVSS | low polyreactivity
QVQLVETGRGLVQAGGSLRLSCAASGRIFRGYAMGWYRQAPGKERELVAAINWSGGNTYYADSVKGRFTISRDNAKNTVYLQMNSLKPEDTAVYYCATLGYLGGGYWGQGTQVTVSS | high polyreactivity
QVQLVETGRGLVQAGGSLRLSCAASGRIFYANAMGWYRQAPGKERELVAAISRTGGSTYYADSVKGRFTISRDNAKNTVYLQMNSLKPEDTAVYYCNALSGVYGYDDWGQGTQVTVSS | high polyreactivity
QVQLVETGVGLVQAGGSLRVICAASGLTFYLYAMGWNRQAPGKERELAAAISSTGITNFADSVKGRFTISRDNAKNTVYLQMTSLKPEDTAVYYCNADYHPFFFEFNYWGKGTQVTVSS | high polyreactivity
QVQLVETRGGLVQAGVSLRLICSASGSTFAPKSIGLYRQAPGKERELVAGLSWGDSTYYADSVKGRFTISRDNAKNTVYLQMISLKPEDTAVYFCAVRWVWNPCGIQGDWAVDYDYWGQGTQVTVSS | low polyreactivity
QVQLVEYQGGLVQAGGSLRLSSAASGIIFDQYAMGWYRQAPGKEREVVAAITYSGGCTYYADSVNGRFTISRDNEKNTVYLQMNSLKPEDTAVYYCADLFGYSLYDAQYDYWGQGTQVTVSS | low polyreactivity
QVQLVGSGGALVQAGGSLRLSCAASGRTFSYYAMGWYRQAPGKERELVASIRSSRTSTYYADSVKGRFTISRDNAKNTVYLQMNSLKPEDTAVYSCAKRYFTWRSTYNYWGQGTKVTVSS | high polyreactivity
QVQLVGSGGGLVQAGGSLRLSCAASGRIFRYNAMGWYRQAPGKEREFVATISWRGGNTYYADSVKGRFTISRDNAKNTVYLQMNSLKPEDTAVYYCATRRLYSKSWYYYWGQGTQVTVSS | high polyreactivity
QVQLVGSGGGLVQAGSSLRLTCAASGLIFTYYAMGWYRQAPGKEREFVAVIDSSGDSTNYADSVKGRFTISRDNAKNTVYLQMNSLKPEDTAVYYCNAYNWSYIYFPFVQEYRTYDYWGQGTQVTVSS | low polyreactivity
QVQLVKSGGGLVQAGGSLRLSCAASGFTFFVYAMGWYRPAPGKERELVAAITSSGGSTYYADSVKGRFTISRDNAKNTVYLQMNSLKPEDTAVYYCAADRYSYLGYPYEYEYWGQGTQGTVSS | low polyreactivity
QVQLVKSGGGLVQAGGSLRLSCAASGFTIYYYAMGWYRQAPGKEMELVASITSGGSTYYADSVKGRFTISRDNAKNTVYLQMNSLKPEDTAVYYCAKTRFHSKEGDYWGQGTQVTVSS | low polyreactivity
QVQLVKSGGGLVQAGGSLRLSCAASGIIFWLYDMGWYRQAPGKERELVAVITWSGDSTYADSVKGRFTISRDNAKNTVYLQMNSLKPEDTAVYYCAAREYYRKPYDHWGQGTQVTVSS | high polyreactivity
QVQLVKSGGGLVQAGGSLRLSCAASGSTFYNAMGWYRQAPGKEREWVAAISIGGSTYYADSVKGRFTISRYNAKNTVYLQMNSLKPEDTAVYYCNADLYYWLRYYDRNDYWGQGTQVTVSS | low polyreactivity
QVQLVKSGGGLVQAGGSLRLSCAASGTFRLYAMGWYRQAPGKERDFVAAITYGGVGTYYADSVKGRFTISRDNAKHTVYLQMNSLNPEDTAVSYCAAELYLTDTDVEYSYWGQGTQVTVSS | low polyreactivity
QVQLVQSAGGLVQAGGSLRLSCAASGFTFVKYAMGWYRQAPGKERELLAVISRRGGSTYYADSVKGRFTISRDNAKNTVYLHMNSLKPEDTAVYYCAAVYYLYSAWRYDYWGQGTQVTVSS | high polyreactivity
QVQLVQSGGCLVQAGGSLRLSCAASGRIFGYYAIGWYRQAPGKERELVAGISRSGGSTYYADSVKWRFTISRDKAKNTVYLQMNSLKPEDTAVYYCAARFNGQTYYYWGQGTQGTVSS | high polyreactivity
QVQLVQSGGGIVQAGGSLRISCAASGFIFSSYDMGWYRQAPGKESELVAAISWTGGSTYYADSVKARFTISRDNAKNTVYLQMTSLKPEETAVYYCNAYPYFLVRIMDSWGQGTEVTVSS | high polyreactivity
QVQLVQSGGGLVEAGGSLRLSCAASGSNFWANAMGWYRQAPGKERELVAGITLNGGLTYYADSVKGRFTISRDNAKNTVYLQMYSLKPEETEVYFCAAAYPTDRHYYWGLGTQVTVSS | low polyreactivity
QVQLVQSGGGLVQAAGSLRLICAASGRTFPANAMGWYRQAPGKERELVAGITKSGGNTYYADSVKGRFTISRDNAKNTVYLQMNSLKPEDTAVYYCATRYYPLVNYLGYDYWGQGTQVTVSS | low polyreactivity
QVQLVQSGGGLVQAGGSLRISCAPSGLTCNGNAMGWYRQAPGKEREMVAAISSSGGTTYYADSVKGRFTISRDNAKNTVYLEMNSLKPEDTAVSYCAARPSGGYESTRTRDYWGQGTQVNVSS | low polyreactivity
QVQLVQSGGGLVQAGGSLRLSCAASGIIFFKYAMGWYRQAPGKERELVAAITESTSSTYYADSVKGRFTISRDNAKNTVYLEMNSMKTEDTAVYYCAARVSQWLPYGGYSRYYYWGQGTQVTVSS | high polyreactivity
QVQLVQSGGGLVQAGGSLRLSCAASGLTNYRYAMGWNRQAPGQEREFVAGISASGGGSSYADSVKGRFTISRDNAKNTVYLQMNRLKPEDTAVYYCAATTTFFVWQGHNYCGQGTQVTVSS | low polyreactivity
QVQLVQSGGGLVQAGGSLRLSCAASGNIISIYVMGWYRQAPGKERELVAAITSGGSTNYADSVKGRFTISRDNAKNTVYFQMNSLKPEDTAVYYCAAERNADDESYYWGQGSQVTVSS | low polyreactivity
QVQLVQSGGGLVQAGGSLRLSCAASGRTFRIYAMGWYRQAPWKEREFVAGITRSDGSTYYADSVKGRFTISRDNAKNTVYLQMISLKPEDTAVYYCNVEPYSHYRSTEDYWGQGTQVTVSS | high polyreactivity
